We go through three molecules from US9844563B2, “Compositions, kits, and methods to induce acquired cytoresistance using stress protein inducers” (FRED HUTCHINSON CANCER RESEARCH CENTER, priority 2014, dated 2017).

In series [1] the test system is heme oxygenase 1 (HO-1). In words: Renal cortical induction of HO-1 by FeS, SnPP and B12 (ELISA, RT-PCR). Type of series: in vivo, mice. Here is the method:
Effects of FeS, SnPP, and B12 on renal cortical induction of heme oxygenase 1 (HO-1). The following experiments assessed the effects of FeS, SnPP, and B12 on the possible induction of the cytoprotective protein HO-1. To this end, mice were injected with each of these agents, as noted above. Either 4 or 18 hrs later, they were anesthetized and the kidneys were removed through a midline abdominal incision. The renal cortices were dissected on ice and then extracted for protein and mRNA. The samples were then assayed for HO-1 protein by ELISA, and HO-1 mRNA by RT-PCR, factored by GAPDH levels. Five normal mice provided control values.

Series [2] in a line: Maleate model of AKI (FeS, SnPP, FeS+SnPP). Type of series: in vivo, mice. Conditions: IV 1 mg FeS and/or 1 μmole SnPP 18 hrs before IP Na maleate 800 mg/Kg; 18 hrs later. The source says:
Effects of Fe sucrose (FeS)/tin protoporphyrin (SnPP) on AKI severity. Maleate model of AKI. When injected into rodents, maleate undergoes relatively selective proximal tubule cell uptake via organic anion transporters. Once intracellular accumulation occurs, maleate is a preferred substrate for succinyl-CoA:3-oxoacid CoA transferase. […] Ample levels of CoA are essential for fatty acid “activation”, allowing for their subsequent metabolism through the Krebs cycle, yielding ATP. In the absence of this process, proximal tubule ATP depletion and cell injury result. Additionally, maleate conjugates the sulfhydryl group of glutathione (GSH), culminating in GSH depletion and potential oxidant tubular stress.
The following experiment tested whether FeS, SnPP or combined FeS+SnPP can mitigate this form of acute kidney injury (AKI). Twenty seven mice were subjected to 200 μL IV tail injections of one of the following: 1) vehicle (phosphate buffered saline, PBS; n, 10); 2) 1 mg FeS (American Regent (Shirley, N.Y.; n, 3); 3) 1 μmole SnPP (Frontier Scientific, Logan, Utah; n 7), or FeS+SnPP, n, 7). Eighteen hrs later, all mice received an IP injection of Na maleate (800 mg/Kg; in 500 ul of PBS). […] The severity of kidney injury was assessed by determining plasma blood urea nitrogen (BUN) and plasma creatinine (PCr) concentrations.

Series [3] relates to HO-1. The series is described as follows: Liver HO-1 mRNA and protein after N-Mgb, SnPP or both. Type of series: in vivo, mice. Here is the method: (§1) Thirty-two mice were divided into 4 equal groups: (1) control mice; (2) mice treated with 1 mg of N-Mgb injection (as a bolus through the tail vein); (3) mice treated with […] of SnPP (via tail vein); and (4) mice treated with combined N-Mgb 1 SnPP. After either 4 hours (n=16) or 18 hours (n=16), the mice were deeply anesthetized with pentobarbital (50 mg/kg), the abdomen was opened through a midline abdominal incision, and the kidneys were removed. To determine potential effects on extrarenal organs, a liver lobe and the heart were also removed. The tissues were iced and then extracted for protein and RNA (RNeasy Plus Mini; Qiagen, Valencia, Calif.) and subjected to enzyme linked immunosorbent assay (ELISA) and reverse transcriptase polymerase chain reaction (RT-PCR) for HO-1, haptoglobin, and IL-10 protein and messenger RNAs (mRNAs). Zager et al. J Am Soc Nephrol 2014;25:998-1012; Zager et al. Am J Physiol 2012;303:F139-48. As an assessment of renal function, control mice and the 18 hour after N-Mgb+SnPP—treated mice had blood urea nitrogen (BUN) and plasma creatinine levels measured. Additionally, transverse 10% formalin fixed kidney sections ([…]) were cut and stained with hematoxylin and eosin (H&E) and periodic acid Schiff (PAS) to further assess potential injury.

Series [4] is described as follows: Serum creatinine after 2 hr subcutaneous infusion of N-myoglobin (constant SnPP). Type of series: in vivo, mice. Conditions: 2 hr subcutaneous infusion 1, 3, 6, 12, or 25 mg/Kg, SnPP constant 1 μmole; 18 hrs later. How it is done:
Mice were subjected to a 2 hr subcutaneous infusion of 1, 3, 6, 12, or 25 mg/Kg of nitrited myoglobin (holding SnPP at a constant dose of 1 μmole). Eighteen hrs later, potential renal injury was assessed by measuring serum creatinine concentrations.
An obvious concern by applying this prophylactic strategy to patients is potential renal and/or extrarenal toxicities. […] Furthermore, it was previously documented in a cell culture system that nitrite addition markedly reduces myoglobin's cytotoxic effects by 75% (unpublished data, 2014). To assess the potential in vivo margin of safety for N-Mgb+SnPP (see Supplemental FIGs.), the maximal amount of N-Mgb that could be given to mice before nephrotoxicity was observed was tested. Up to 25 times the employed N-Mgb dose (with a constant SnPP dose) could be administered (over 2 hours) without induction of nephrotoxicity (normal BUN and creatinine, 18 hours later).

In series [5] the test system is HK-2 cells. The series is described as follows: HK-2 cell injury by MTT assay. Type of series: cell-based. Conditions: equimolar Na nitrite added to 10 mg/ml myoglobin, 18 hr incubation. How it is done: HK-2 cells (a proximal tubule cell line derived from normal human kidney) were incubated in keratinocyte serum free medium either under normal (control) conditions or in the presence of 10 mg/mL horse skeletal muscle myoglobin or nitrited myoglobin (produced by equimolar Na nitrite addition to 10 mg/ml myoglobin). After 18 hr incubations, the severity of cell injury (% cell death) was assessed by MTT assay. Myoglobin induced 40% cell death (40% decrease in MTT cell uptake), compared to control incubated cells. Nitrite binding to myoglobin reduced cell death by 75%. Thus, nitrite binding is able to reduce myoglobin's cytotoxic effects.

In series [6] the test system is IL-10. The series is described as follows: Renal cortical IL-10 mRNA and protein after N-Mgb, SnPP or both. Type of series: in vivo, mice. Here is the method: as §1
The subject of series [7] is Haptoglobin. The series is described as follows: Liver haptoglobin mRNA and protein after N-Mgb, SnPP or both. Type of series: in vivo, mice. Here is the method: as §1
The subject of series [8] is HO-1. In words: Renal cortical HO-1 mRNA (RT-PCR) and protein (ELISA) after N-Mgb, SnPP or both. Type of series: in vivo, mice. How it is done:
as §1
Background: An ELISA detects its analyte on a solid surface through an enzyme-linked reagent.

Series [9] relates to Haptoglobin. The series is described as follows: Cardiac haptoglobin mRNA and protein after N-Mgb, SnPP or both. Type of series: in vivo, mice. Here is the method: as §1
In series [10] the test system is HO-1. In words: Cardiac HO-1 mRNA and protein after N-Mgb, SnPP or both. Type of series: in vivo, mice. Here is the method:
as §1

Series [11] relates to IL-10. In words: Liver IL-10 mRNA and protein after N-Mgb, SnPP or both. Type of series: in vivo, mice. How it is done:
as §1

For series [12], the system named is Haptoglobin. The series is described as follows: Renal cortical haptoglobin mRNA and protein after N-Mgb, SnPP or both. Type of series: in vivo, mice. Here is the method: as §1
Series [13] has as its system IL-10. In words: Cardiac IL-10 mRNA and protein after N-Mgb, SnPP or both. Type of series: in vivo, mice. Here is the method: as §1
Series [14] is described as follows: Glycerol model of rhabdomyolysis-induced AKI. Type of series: in vivo, mice. The settings on record: IV pretreatment 18 hours before glycerol; 18 hours after glycerol. Here is the method: Assessments of cytoresistance. Glycerol model of rhabdomyolysis-induced AKI. Twenty mice were divided into 4 equal groups (controls, mice treated with N-Mgb, SnPP, and mice treated with N-Mgb+SnPP tail vein injections) as described previously. 18 hours later, the mice were briefly anesthetized with isoflurane and immediately injected with 9 mL/kg of 50% glycerol, administered in equally divided doses into each hind limb. At 18 hours after glycerol injection, the mice were anesthetized with pentobarbital, the abdomen was opened, a blood sample for BUN and creatinine assessments was obtained from the vena cava, and the kidneys were resected. The control post-glycerol group and the N-Mgb+SnPP—pretreated glycerol group had kidney sections stained with H&E.
Calculations and statistics. All values are given as the mean […] standard error of the mean. Statistical comparisons were made by unpaired Student's t test. If multiple comparisons were made, the Bonferroni correction was applied. The severity of renal histologic injury in the glycerol AKI model was graded on a […] (least to most severe tubular necrosis and cast formation observed). The histologic results were compared by Wlcoxon rank sum test. Statistical significance was taken as a P value of <0.05.

The mark [15] stands for this setting: renal cortex, 4 h after Rx treatment.

Consider Fe sucrose [FeS], for which the “renal cortical HO-1 protein levels” value in [1] (4 hr post IV injection) is listed as “marked HO-1 protein increases”; in series [1] (18 hr time point), “remained elevated at the 18 hr time point, particularly in the case of FeS administration”; in series [1] (18 hr time point, listed as Fe sucrose), “persists for 18 hrs”. Besides, in series [2], the “reductions in BUN/PCr concentrations, maleate-induced AKI” value is listed as “Neither SnPP alone nor FeS alone significantly altered the severity of renal injury”.
Turning to cyanocobalamin [vitamin B12], the “renal cortical HO-1 protein levels” value in [1] (4 hr post IV injection) is listed as “marked HO-1 protein increases”; in series [1] (18 hr time point), “persists for 18 hrs”.

B1: N-Mgb: horse skeletal muscle myoglobin converted into a nitrited form by equimolar Na nitrite (protein, UniProt P68082 2-154, looked up)
Myoglobin: GLSDGEWQQVLNVWGKVEADIAGHGQEVLIRLFTGHPETLEKFDKFKHLKTEAEMKASEDLKKHGTVVLTALGGILKKKGHHEAELKPLAQSHATKHKIPIKYLEFISDAIIHVLHSKHPGDFGADAQGAMTKALELFRNDIAAKYKELGFQG
modifications: nitrited with sodium nitrite
Consider B1, for which, in [3] (4 h after Rx treatment), the “Liver mRNA HO-1” value is listed as 1.83 ± 0.33 and the “Liver protein HO-1 protein” value is 17 ± 2. For the same molecule, in [3] (18 h after Rx treatment), the “Liver mRNA HO-1” value is 0.82 ± 0.07 and the “Liver protein HO-1 protein” value came to 14.9 ± 0.3. Moreover, the “serum creatinine concentrations (potential renal injury)” value in series [4] was “No significant increase”. Moreover, in [5], the “reduction of myoglobin-induced cell death by nitrite binding” value is reported as 75%. Also, in [6] (4 hours after injection), the “increase in renal IL-10 mRNA” value is “either minimal or no impact”. For the same molecule, in series [6] (18 h after Rx treatment), the “Kidney mRNA cortex IL-10” value was determined as 0.43 ± 0.10 and the “Kidney protein IL-10” value is recorded as 292 ± 54. In [6] (18 hours after injection), the “increase in renal IL-10 protein” value is “absence of IL-10 protein increases”. In addition, in [6] (setting [15]), the “Kidney IL-10 (protein)” value worked out at 265 ± 54 and the “Kidney mRNA IL-10” value turned out to be 1.45 ± 0.6. Further, in series [7] (4 h after Rx treatment), the “Liver mRNA Haptoglobin” value amounted to 0.98 ± 0.1 and the “Liver protein Haptoglobin” value turned out to be 359.5 ± 39.6. Besides, in [7] (18 h after Rx treatment), the “Liver mRNA Haptoglobin” value stood at 0.91 ± 0.07 and the “Liver protein Haptoglobin” value worked out at 358.8 ± 32.8. Besides, in series [8] (4 hours after IV injection, vs controls), the “increase in renal HO-1 mRNA” value is “only modest increases”. Moreover, in [8] (18 h after Rx treatment), the “Kidney mRNA cortex HO-1” value worked out at 0.58 ± 0.18 and the “Kidney protein HO-1” value came to 30 ± 6. Further, the “increase in renal HO-1 protein” value in series [8] (18 hours post-treatment, vs control values) is “only relatively small HO-1 protein increases”. Moreover, in [8] (setting [15]), the “Kidney HO-1 protein” value was found to be 36.1 ± 2.9 and the “Kidney mRNA HO-1” value was 3.38 ± 0.38. Further, in series [9] (4 h after Rx treatment), the “Cardiac mRNA Haptoglobin” value is 0.75 ± 0.10 and the “Cardiac protein Haptoglobin” value is 40.4 ± 8.6. Further, in series [9] (18 h after Rx treatment), the “Cardiac mRNA Haptoglobin” value is 0.53 ± 0.21 and the “Cardiac protein Haptoglobin” value stood at 249.6 ± 15.0. For the same molecule, in series [10] (4 h after Rx treatment), the “Cardiac Protein HO-1” value is recorded as 1.64 ± 0.19 and the “Cardiac mRNA HO-1” value worked out at 0.09 ± 0.01. In addition, the “Cardiac mRNA HO-1” value in series [10] (18 h after Rx treatment) is listed as 0.08 ± 0.01. Also, in series [11] (4 h after Rx treatment), the “Liver mRNA IL-10” value was determined as 0.67 ± 0.46 and the “Liver protein IL-10” value is 286 ± 32. For the same molecule, in series [11] (18 h after Rx treatment), the “Liver mRNA IL-10” value is reported as 0.06 ± 0.02 and the “Liver protein IL-10” value is 5988 ± 549. Further, in series [12] (18 h after Rx treatment), the “Kidney mRNA cortex Haptoglobin” value is listed as 0.24 ± 0.04 and the “Kidney protein Haptoglobin” value amounted to 183.8 ± 20.4. Also, the “increase in renal cortical haptoglobin protein levels” value in series [12] (18 hours after injections) is “comparably increased”. For the same molecule, in series [12] (setting [15]), the “Kidney Haptoglobin (protein)” value is given as 17.6 ± 1^ and the “Kidney mRNA Haptoglobin” value turned out to be 1.94 ± 0.31. Also, in series [13] (4 h after Rx treatment), the “Cardiac mRNA IL-10” value was 0.86 ± 0.11 and the “Cardiac protein IL-10” value is 21 ± 12. Besides, in series [13] (18 h after Rx treatment), the “Cardiac mRNA IL-10” value was found to be 0.67 ± 0.10 and the “Cardiac protein IL-10” value was 14.5 ± 10^. Also, in [14], the “protection against glycerol-induced AKI (BUN/creatinine levels)” value is on record as “modest protection”.
